Results taken from patent US8992886B2, “Cyclic peptide analogues for non-invasive imaging of pancreatic beta-cells” (Board of Regents, the University of Texas System, priority 2009, dated 2015).
Ends that are not written are not given here.

Experiments:
GLP-1R [1] = target: T1, GLP-1R (Homo sapiens, UniProt P43220); assay: cAMP formation by radioimmunoassay in transfected HEK293 cells; format: cell-based; set-up: expressed in transfected cells; host or cells: HEK293; details: compared with GLP-1
Procedure: Twelve cyclic GLP-1 analogues containing lactam bridges in various regions (from the N- to C-terminal regions) were designed and synthesized. The cyclic peptides were prepared by following standard solid-phase peptide synthesis protocol with N-Fmoc/^tBu protecting group strategy. The side chains of a lysine and a glutamic acid that would form a lactam bridge were protected with allyl groups which were selectively removed by using Pd^0 catalyst and an allyl scavenger like N,N-dimethylbarbituric acid (29). The released free amine and carboxylic acid were coupled on resin using HBTU or BOP to form a cyclic peptide. […] In addition, cAMP formation by the peptides was determined by radioimmunoassay using the transfected HEK293 cells to examine agonistic activity. […] (SEQ ID No: 5) and […] R (SEQ ID No: 6).
Target sequence in this assay (P43220 24-463): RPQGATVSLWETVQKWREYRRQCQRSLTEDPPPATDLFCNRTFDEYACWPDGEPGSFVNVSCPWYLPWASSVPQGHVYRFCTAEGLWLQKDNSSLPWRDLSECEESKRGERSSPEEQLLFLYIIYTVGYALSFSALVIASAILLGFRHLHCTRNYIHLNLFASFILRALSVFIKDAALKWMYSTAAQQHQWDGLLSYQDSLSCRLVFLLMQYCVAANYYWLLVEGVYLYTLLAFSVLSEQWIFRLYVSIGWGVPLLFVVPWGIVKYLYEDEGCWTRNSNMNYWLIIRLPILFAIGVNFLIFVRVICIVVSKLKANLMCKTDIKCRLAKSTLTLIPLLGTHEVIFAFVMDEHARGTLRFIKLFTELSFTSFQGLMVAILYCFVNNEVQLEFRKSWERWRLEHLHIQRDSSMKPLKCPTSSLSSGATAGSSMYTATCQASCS

[2] = Tissue distribution of ^125I-labeled peptide in normal Sprague-Dawley rats; format: in vivo
Description: (§1) This presumably resulted from the degradation of the peptide by DPP-IV since it has Ala at position 8. In order to overcome this problem, we have replaced the L-Ala with a D-Ala. Furthermore, due to high stomach uptake likely resulting from in vivo de-iodination of the ^125I-labeled peptide, a conventional metal chelator. […] The purified conjugates were labeled with either ^64Cu or ^111In in high radiochemical yields.

[3] = system: freshly isolated rat islets; assay: Displacement binding assay of ^125I-labeled peptide on isolated islets; details: ^125I-labeled (at Tyr^19)
Description: as §1

GLP-1R [4] = target: T1, GLP-1R; details: DPP-IV degradation fragment; cited from earlier work
Target sequence in this assay (P43220 24-463, species assumed): as the sequence (P43220 24-463) above

| Substance | receptor activation (cAMP formation) (GLP-1R [1]) | accumulation in kidneys and stomach [2] | pancreas uptake [2] | specific binding to isolated islets [3] | receptor affinity and biological activity (GLP-1R [4]) |
| --- | --- | --- | --- | --- | --- |
| HAEGTFTSDVSSYLEGQAAKEFIEWLVKG R (chain 1 HAEGTFTSDVSSYLEGQAAKEFIEWLVKGR; chain 2 HAEGTFTSDVSSYLEGQAAKEFIEWLVKGR; lactam (positions not given here); ends not checked; also: lactam bridge, positions not given here) [SEQ ID No: 6, cyclic GLP-1 analogue with a lactam bridge] | comparable or improved | – | – | – | – |
| HAEGTFTSDESSYKEGQAAKEFIAWLVKGR (lactam (positions not given here); ends not checked; also: lactam bridge, positions not given here) [SEQ ID No: 5, cyclic GLP-1 analogue with a lactam bridge] | comparable or improved | high accumulation in kidneys and stomach | no significant pancreas uptake | appreciable specific binding | – |
| GLP-1(9-36) amide | – | – | – | – | lost receptor affinity and biological activity nearly completely |
